{"source": "patent US20130183702", "tested_on": "T1, cholesterol-tagged, protease-sensitive polyacrylic acid block copolymer containing the peptide GSGRSAGC (SEQ ID NO: 20), embedded in polymer-caged liposomes (PCLs)", "T1 sequence": "GSGRSAGC", "data": [{"substance": "urokinase plasminogen activator (uPA)", "values": [{"measurement": "carboxyfluorescein release from PCLs (total fluorescent intensity), -uPA vs +uPA (25 ug/mL, fresh batch), second test", "result": "They show very little difference in total intensity and the p value is 0.6617 between the two, indicating that they are not different"}, {"measurement": "carboxyfluorescein release from PCLs (total fluorescent intensity), no uPA vs 25 ug/mL uPA, first test", "result": "there was very little difference between the no uPA sample and the uPA sample, indicating that the polymer caged liposome did not have the desired sensitivity to uPA (p=0.5173)"}, {"measurement": "carboxyfluorescein release from PCLs (total fluorescent intensity), no uPA vs renatured uPA, third test", "result": "there is a difference between the no uPA sample and the uPA sample with the uPA sample being significantly higher (p value 0.0071)"}, {"measurement": "change in conductance (current vs. time) after adding 10^-11 mol urokinase to MgSO4-loaded PCLs", "result": "A significant increase in conductance was observed due to the release of Mg^2+ and SO4^2- from the liposomes' hydrophilic interior"}, {"measurement": "fluorescence of cyanine 7.0 released from PCLs after adding urokinase-type plasminogen activator, recorded every 5 min", "result": "The highest peak was visible after 50 minutes of incubation time"}]}]}
